Results taken from patent US12247238B2, “Mogroside biocatalysis methods and products” (The Coca-Cola Company, priority 2019, dated 2025).

Assays:
[1] = RRK loop library variant screening, mogroside V substrate; format: biochemical; settings: second pass evaluation, 10 mM mogroside V, pH 5.6, 37° C., 72 hours
Experimental: (§1) Single transformant colonies from 3.2.2 were inoculated into 2mL BMGY in 48 well-growth blocks and grown overnight at 30° C., 1000 rpm in a benchtop incubator before dilution of cell culture from each well into 2 mL BMM medium an equivalent well in a fresh growth block, to an OD600 nm of 1.0, and growing the induction growth blocks at 30° C., 1000 rpm in a benchtop incubator for 72 hours. The cells were then harvested (5000 g, 10 minutes) and the supernatant from each well concentrated using a 30 kDa cut-off Amicon Ultra 0.5 mL concentrator column (10 000 g, 5 minutes). Enzymatic assays were setup in fresh growth blocks to a total volume of 500 μL, comprising with 50 mM sodium citrate buffer pH 5.6, 10 mM magnesium chloride, 10 mM mogroside V and 50 μL concentrated supernatant (˜35 μg mL−1 protein). Assays were incubated without shaking at 37° C. for 72 hours. 190 μL of reaction was combined with 10 μL 10 mM internal standard (N-Boc-) and 5 μL analyzed by HPLC.
(§2) Mogroside compounds HPLC separation and quantification was conducted using a Synergi Hydro-RP column (250 mm×4.6 mm or 150 mm×4.6 mm) with an initial flow rate of 1 mL min−1 and a water: acetonitrile gradient as per below, similar to that described by Zhou et al. (WO 2014/150127). Compounds were detected at 210 nm using diode array detector (Agilent Technologies, USA), and calibration curves established using standard curves from 0.1 to 10 mM. 150 mm column retention times in minutes: mog V 9.5, sia 1 10.6, mog IVa 10.5, mog IV 11.3, mog III 12.6, mogl I 13.2. 250 mm column retention times: mog V 12.3, sia 1 13.2, mog IVa 13.5, mog IV 14.1, mog III 15.3, mog II 16.2.
Therefore, variants showing improved function were chosen if they surpassed a yield value >70% by peak area during this first pass evolution.
(§3) 48 variants were selected based on Siamenoside I yields of >70% by peak area for a second pass evaluation. The cell lines were regrown and assayed with both mogroside V and Siamenoside I as substrates, independently.

[2] = RRK loop library variant second pass evaluation, Siamenoside I substrate; format: biochemical; settings: Siamenoside I as substrate
Experimental: as §1, §2, §3

Row | Molecule | % Peak Area Siamenoside I [1] | Reaction Progress [1] | Siamenoside I Substrate Evaluation % Peak Area Siamenoside I Left After 72 hr [2]
1 | S1 RRK 14: RRK loop library variant, positions 204/205/208: NNE (protein, UniProt Q2UCU3 19-1005, looked up, variant G204N C205N V208E) Beta-galactosidase A: ASIKHRLNGFTILEHPDPAKRDLLQDIVTWDDKSLFINGERIMLFSGEVHPFRLPVPSLWLDIFHKIRALGFNCVSFYIDWALLEGKPGDYRAEGIFALEPFFDAAKEAGIYLIARPGSYINAEVSGGGFPGWLQRVNGTLRSSDEPFLKATDNYIANAAAAVAKAQITNGGPVILYQPENEYSGNNCGEKYPDADYMQYVMDQARKADIVVPFISNDASPSGHNAPGSGTGAVDIYGHDSYPLGFDCANPSVWPEGKLPDNFRTLHLEQSPSTPYSLLEFQAGAFDPWGGPGFEKCYALVNHEFSRVFYRNDLSFGVSTFNLYMTFGGTNWGNLGHPGGYTSYDYGSPITETRNVTREKYSDIKLLANFVKASPSYLTATPRNLTTGVYTDTSDLAVTPLIGDSPGSFFVVRHTDYSSQESTSYKLKLPTSAGNLTIPQLEGTLSLNGRDSKIHVVDYNVSGTNIIYSTAEVFTWKKFDGNKVLVLYGGPKEHHELAIASKSNVTIIEGSDSGIVSTRKGSSVIIGWDVSSTRRIVQVGDLRVFLLDRNSAYNYWVPELPTEGTSPGFSTSKTTASSIIVKAGYLLRGAHLDGADLHLTADFNATTPIEVIGAPTGAKNLFVNGEKASHTVDKNGIWSSEVKYAAPEIKLPGLKDLDWKYLDTLPEIKSSYDDSAWVSADLPKTKNTHRPLDTPTSLYSSDYGFHTGYLIYRGHFVANGKESEFFIRTQGGSAFGSSVWLNETYLGSWTGADYAMDGNSTYKLSQLESGKNYVITVVIDNLGLDENWTVGEETMKNPRGILSYKLSGQDASAITWKLTGNLGGEDYQDKVRGPLNEGGLYAERQGFHQPQPPSESWESGSPLEGLSKPGIGFYTAQFDLDLPKGWDVPLYFNFGNNTQAARAQLYVNGYQYGKFTGNVGPQTSFPVPEGILNYRGTNYVALSLWALESDGAKLGSFELSYTTPVLTGYGNVESPEQPKYEQRKGAY | 74 % Peak Area | 75 | 84 % Peak Area
2 | S2 RRK 12: RRK loop library clone, positions 204/205/208: GCV (wildtype) (protein, UniProt Q2UCU3 19-1005, looked up) Beta-galactosidase A: ASIKHRLNGFTILEHPDPAKRDLLQDIVTWDDKSLFINGERIMLFSGEVHPFRLPVPSLWLDIFHKIRALGFNCVSFYIDWALLEGKPGDYRAEGIFALEPFFDAAKEAGIYLIARPGSYINAEVSGGGFPGWLQRVNGTLRSSDEPFLKATDNYIANAAAAVAKAQITNGGPVILYQPENEYSGGCCGVKYPDADYMQYVMDQARKADIVVPFISNDASPSGHNAPGSGTGAVDIYGHDSYPLGFDCANPSVWPEGKLPDNFRTLHLEQSPSTPYSLLEFQAGAFDPWGGPGFEKCYALVNHEFSRVFYRNDLSFGVSTFNLYMTFGGTNWGNLGHPGGYTSYDYGSPITETRNVTREKYSDIKLLANFVKASPSYLTATPRNLTTGVYTDTSDLAVTPLIGDSPGSFFVVRHTDYSSQESTSYKLKLPTSAGNLTIPQLEGTLSLNGRDSKIHVVDYNVSGTNIIYSTAEVFTWKKFDGNKVLVLYGGPKEHHELAIASKSNVTIIEGSDSGIVSTRKGSSVIIGWDVSSTRRIVQVGDLRVFLLDRNSAYNYWVPELPTEGTSPGFSTSKTTASSIIVKAGYLLRGAHLDGADLHLTADFNATTPIEVIGAPTGAKNLFVNGEKASHTVDKNGIWSSEVKYAAPEIKLPGLKDLDWKYLDTLPEIKSSYDDSAWVSADLPKTKNTHRPLDTPTSLYSSDYGFHTGYLIYRGHFVANGKESEFFIRTQGGSAFGSSVWLNETYLGSWTGADYAMDGNSTYKLSQLESGKNYVITVVIDNLGLDENWTVGEETMKNPRGILSYKLSGQDASAITWKLTGNLGGEDYQDKVRGPLNEGGLYAERQGFHQPQPPSESWESGSPLEGLSKPGIGFYTAQFDLDLPKGWDVPLYFNFGNNTQAARAQLYVNGYQYGKFTGNVGPQTSFPVPEGILNYRGTNYVALSLWALESDGAKLGSFELSYTTPVLTGYGNVESPEQPKYEQRKGAY | 66 % Peak Area | 89 | 35 % Peak Area
3 | S2 RRK 13: RRK loop library variant, positions 204/205/208: EES (protein, UniProt Q2UCU3 19-1005, looked up, variant G204E C205E V208S) Beta-galactosidase A: ASIKHRLNGFTILEHPDPAKRDLLQDIVTWDDKSLFINGERIMLFSGEVHPFRLPVPSLWLDIFHKIRALGFNCVSFYIDWALLEGKPGDYRAEGIFALEPFFDAAKEAGIYLIARPGSYINAEVSGGGFPGWLQRVNGTLRSSDEPFLKATDNYIANAAAAVAKAQITNGGPVILYQPENEYSGEECGSKYPDADYMQYVMDQARKADIVVPFISNDASPSGHNAPGSGTGAVDIYGHDSYPLGFDCANPSVWPEGKLPDNFRTLHLEQSPSTPYSLLEFQAGAFDPWGGPGFEKCYALVNHEFSRVFYRNDLSFGVSTFNLYMTFGGTNWGNLGHPGGYTSYDYGSPITETRNVTREKYSDIKLLANFVKASPSYLTATPRNLTTGVYTDTSDLAVTPLIGDSPGSFFVVRHTDYSSQESTSYKLKLPTSAGNLTIPQLEGTLSLNGRDSKIHVVDYNVSGTNIIYSTAEVFTWKKFDGNKVLVLYGGPKEHHELAIASKSNVTIIEGSDSGIVSTRKGSSVIIGWDVSSTRRIVQVGDLRVFLLDRNSAYNYWVPELPTEGTSPGFSTSKTTASSIIVKAGYLLRGAHLDGADLHLTADFNATTPIEVIGAPTGAKNLFVNGEKASHTVDKNGIWSSEVKYAAPEIKLPGLKDLDWKYLDTLPEIKSSYDDSAWVSADLPKTKNTHRPLDTPTSLYSSDYGFHTGYLIYRGHFVANGKESEFFIRTQGGSAFGSSVWLNETYLGSWTGADYAMDGNSTYKLSQLESGKNYVITVVIDNLGLDENWTVGEETMKNPRGILSYKLSGQDASAITWKLTGNLGGEDYQDKVRGPLNEGGLYAERQGFHQPQPPSESWESGSPLEGLSKPGIGFYTAQFDLDLPKGWDVPLYFNFGNNTQAARAQLYVNGYQYGKFTGNVGPQTSFPVPEGILNYRGTNYVALSLWALESDGAKLGSFELSYTTPVLTGYGNVESPEQPKYEQRKGAY | 72 % Peak Area | 88 | 73 % Peak Area
4 | S2 RRK 2: RRK loop library variant, positions 204/205/208: GDG (protein, UniProt Q2UCU3 19-1005, looked up, variant C205D V208G) Beta-galactosidase A: ASIKHRLNGFTILEHPDPAKRDLLQDIVTWDDKSLFINGERIMLFSGEVHPFRLPVPSLWLDIFHKIRALGFNCVSFYIDWALLEGKPGDYRAEGIFALEPFFDAAKEAGIYLIARPGSYINAEVSGGGFPGWLQRVNGTLRSSDEPFLKATDNYIANAAAAVAKAQITNGGPVILYQPENEYSGGDCGGKYPDADYMQYVMDQARKADIVVPFISNDASPSGHNAPGSGTGAVDIYGHDSYPLGFDCANPSVWPEGKLPDNFRTLHLEQSPSTPYSLLEFQAGAFDPWGGPGFEKCYALVNHEFSRVFYRNDLSFGVSTFNLYMTFGGTNWGNLGHPGGYTSYDYGSPITETRNVTREKYSDIKLLANFVKASPSYLTATPRNLTTGVYTDTSDLAVTPLIGDSPGSFFVVRHTDYSSQESTSYKLKLPTSAGNLTIPQLEGTLSLNGRDSKIHVVDYNVSGTNIIYSTAEVFTWKKFDGNKVLVLYGGPKEHHELAIASKSNVTIIEGSDSGIVSTRKGSSVIIGWDVSSTRRIVQVGDLRVFLLDRNSAYNYWVPELPTEGTSPGFSTSKTTASSIIVKAGYLLRGAHLDGADLHLTADFNATTPIEVIGAPTGAKNLFVNGEKASHTVDKNGIWSSEVKYAAPEIKLPGLKDLDWKYLDTLPEIKSSYDDSAWVSADLPKTKNTHRPLDTPTSLYSSDYGFHTGYLIYRGHFVANGKESEFFIRTQGGSAFGSSVWLNETYLGSWTGADYAMDGNSTYKLSQLESGKNYVITVVIDNLGLDENWTVGEETMKNPRGILSYKLSGQDASAITWKLTGNLGGEDYQDKVRGPLNEGGLYAERQGFHQPQPPSESWESGSPLEGLSKPGIGFYTAQFDLDLPKGWDVPLYFNFGNNTQAARAQLYVNGYQYGKFTGNVGPQTSFPVPEGILNYRGTNYVALSLWALESDGAKLGSFELSYTTPVLTGYGNVESPEQPKYEQRKGAY | 76 % Peak Area | 87 | 78 % Peak Area
